Values belong to the substance of their own block, whether it stands above or below them.
Columns and labels:
[1] = target: GBAS (human) (UniProt O75323); test: BioID-MS
[2] = target: NDUFS7 (human) (UniProt O75251); test: BioID-MS
[3] = target: FASTKD5 (human) (UniProt Q7L8L6); test: BioID-MS
[4] = target: IBA57 (human) (UniProt Q5T440); test: BioID-MS
[5] = target: NME4 (human) (UniProt O00746); test: BioID-MS
[6] = target: DHRS4 (human) (UniProt Q9BTZ2); test: BioID-MS
[7] = target: SUCLG1 (human) (UniProt P53597); test: BioID-MS
[8] = target: METTL17 (human) (UniProt Q9H7H0); test: BioID-MS
[9] = target: GATC (human) (UniProt O43716); test: BioID-MS
[10] = target: ACAT1 (human) (UniProt P24752); test: BioID-MS
[11] = target: THNSL1 (human) (UniProt Q8IYQ7); test: BioID-MS
[12] = target: SDHB (human) (UniProt P21912); test: BioID-MS
[13] = target: PCK2 (human) (UniProt Q16822); test: BioID-MS
[14] = target: PDE12 (human) (UniProt Q6L8Q7); test: BioID-MS
[15] = target: NDUFV3 (human) (UniProt P56181); test: BioID-MS
[16] = target: BCKDHB (human) (UniProt P21953); test: BioID-MS
[17] = target: BCKDHA (human) (UniProt P12694); test: BioID-MS
[18] = target: LETM1 (human) (UniProt O95202); test: BioID-MS
[19] = target: NDUFAF1 (human) (UniProt Q9Y375); test: BioID-MS
[20] = target: MRPL44 (human) (UniProt Q9H9J2); test: BioID-MS
[21] = target: ALDH4A1 (human) (UniProt P30038); test: BioID-MS
[22] = target: K1AA0564 (human) (UniProt A3KMH1); test: BioID-MS
[23] = target: COX5A (human) (UniProt P20674); test: BioID-MS
[24] = target: SUPV3L1 (human) (UniProt Q8IYB8); test: BioID-MS
[25] = target: HADH (human) (UniProt Q16836); test: BioID-MS
[26] = target: NDUFA12 (human) (UniProt Q9UI09); test: BioID-MS
[27] = target: ETFB (human) (UniProt P38117); test: BioID-MS
[28] = target: IDE (human) (UniProt P14735); test: BioID-MS
[29] = target: TARS2 (human) (UniProt Q9BW92); test: BioID-MS
[30] = target: NDUFA6 (human) (UniProt P56556); test: BioID-MS
[31] = target: NFS1 (human) (UniProt Q9Y697); test: BioID-MS
[32] = target: ARG2 (human) (UniProt P78540); test: BioID-MS
[33] = target: MRM3 (human) (UniProt Q9HC36); test: BioID-MS
[34] = target: MRPS15 (human) (UniProt P82914); test: BioID-MS
[35] = target: ZADH2 (human) (UniProt Q8N4Q0); test: BioID-MS
[36] = target: MTHFD1L (human) (UniProt Q6UB35); test: BioID-MS
[37] = target: MDH2 (human) (UniProt P40926); test: BioID-MS
[38] = target: HSD17B8 (human) (UniProt Q92506); test: BioID-MS
[39] = target: UQCRB (human) (UniProt P14927); test: BioID-MS
[40] = target: GTPBP10 (human) (UniProt A4D1E9); test: BioID-MS
[41] = target: PITRM1 (human) (UniProt Q5JRX3); test: BioID-MS
[42] = target: LARS2 (human) (UniProt Q15031); test: BioID-MS
[43] = target: NADKD1 (human) (UniProt Q4G0N4); test: BioID-MS
[44] = target: MTIF2 (human) (UniProt P46199); test: BioID-MS
[45] = target: POLG2 (human) (UniProt Q9UHN1); test: BioID-MS +ONC201
[46] = target: OXA1L (human) (UniProt Q15070); test: BioID-MS +ONC201
[47] = target: TAC01 (human) (UniProt Q9BSH4); test: BioID-MS +ONC201
[48] = target: MICU2 (human) (UniProt Q8IYU8); test: BioID-MS +ONC201
[49] = target: IARS2 (human) (UniProt Q9NSE4); test: BioID-MS +ONC201
[50] = target: MRPS36 (human) (UniProt P82909); test: BioID-MS +ONC201
[51] = target: MTRF1 (human) (UniProt O75570); test: BioID-MS +ONC201
[52] = target: PCK2 (human) (UniProt Q16822); test: BioID-MS +ONC201
[53] = target: RPS15A (human) (UniProt P62244); test: BioID-MS +ONC201
[54] = target: RG9MTD1 (human) (UniProt Q7L0Y3); test: BioID-MS +ONC201
[55] = target: NDUFS2 (human) (UniProt O75306); test: BioID-MS +ONC201
[56] = target: PYCR1 (human) (UniProt P32322); test: BioID-MS +ONC201

Chain of PCK2 (human) (Q16822 33-640 limits assumed): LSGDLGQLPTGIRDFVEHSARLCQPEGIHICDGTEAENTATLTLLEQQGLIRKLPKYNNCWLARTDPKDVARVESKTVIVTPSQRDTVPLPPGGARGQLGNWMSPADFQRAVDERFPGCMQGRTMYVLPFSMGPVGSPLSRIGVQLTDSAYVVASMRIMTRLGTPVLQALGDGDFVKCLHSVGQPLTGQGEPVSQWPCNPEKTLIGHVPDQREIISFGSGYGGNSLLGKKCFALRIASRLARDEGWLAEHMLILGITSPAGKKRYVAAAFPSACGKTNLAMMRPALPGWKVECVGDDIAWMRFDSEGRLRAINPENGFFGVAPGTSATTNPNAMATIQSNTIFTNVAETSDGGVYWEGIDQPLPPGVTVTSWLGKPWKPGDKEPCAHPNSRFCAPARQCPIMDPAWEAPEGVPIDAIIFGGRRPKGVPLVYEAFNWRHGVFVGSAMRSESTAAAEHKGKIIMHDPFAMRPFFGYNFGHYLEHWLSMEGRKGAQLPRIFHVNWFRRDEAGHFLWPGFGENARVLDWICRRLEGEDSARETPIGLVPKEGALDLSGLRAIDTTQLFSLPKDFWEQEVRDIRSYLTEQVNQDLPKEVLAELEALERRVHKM
Chain of NFS1 (human) (Q9Y697 56-457 limits assumed): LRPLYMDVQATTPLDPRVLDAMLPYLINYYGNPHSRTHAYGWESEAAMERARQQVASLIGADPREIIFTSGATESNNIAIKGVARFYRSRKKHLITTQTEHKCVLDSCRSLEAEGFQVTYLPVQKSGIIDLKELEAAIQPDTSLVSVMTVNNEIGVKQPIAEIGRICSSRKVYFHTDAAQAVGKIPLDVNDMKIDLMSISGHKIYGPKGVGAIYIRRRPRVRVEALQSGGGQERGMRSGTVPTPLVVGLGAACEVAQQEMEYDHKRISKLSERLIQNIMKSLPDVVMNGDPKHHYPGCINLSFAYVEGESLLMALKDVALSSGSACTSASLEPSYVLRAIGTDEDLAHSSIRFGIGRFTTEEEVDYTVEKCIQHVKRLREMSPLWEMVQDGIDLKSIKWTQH
Chain of ACAT1 (human) (P24752 34-427 limits assumed): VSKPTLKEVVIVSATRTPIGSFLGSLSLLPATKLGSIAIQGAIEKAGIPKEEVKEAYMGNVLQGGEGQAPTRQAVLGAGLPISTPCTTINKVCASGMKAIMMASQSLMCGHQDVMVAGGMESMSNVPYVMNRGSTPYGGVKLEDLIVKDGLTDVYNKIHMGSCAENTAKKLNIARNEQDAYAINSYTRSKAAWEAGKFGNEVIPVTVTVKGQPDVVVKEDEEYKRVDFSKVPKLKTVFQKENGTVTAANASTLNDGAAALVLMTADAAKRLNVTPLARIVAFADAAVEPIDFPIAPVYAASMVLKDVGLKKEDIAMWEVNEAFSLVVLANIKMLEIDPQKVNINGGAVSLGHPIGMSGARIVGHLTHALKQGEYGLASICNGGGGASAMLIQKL
Chain of HADH (human) (Q16836 13-314 limits assumed): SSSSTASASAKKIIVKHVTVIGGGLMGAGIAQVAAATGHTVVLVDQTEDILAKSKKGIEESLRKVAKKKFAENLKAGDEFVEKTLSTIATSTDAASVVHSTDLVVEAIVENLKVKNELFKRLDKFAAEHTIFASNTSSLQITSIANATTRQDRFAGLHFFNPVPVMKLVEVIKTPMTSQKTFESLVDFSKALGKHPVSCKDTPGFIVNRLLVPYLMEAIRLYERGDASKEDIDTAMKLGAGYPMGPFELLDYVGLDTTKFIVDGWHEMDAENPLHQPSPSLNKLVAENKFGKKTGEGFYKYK
Chain of IBA57 (human) (Q5T440 40-356 limits assumed): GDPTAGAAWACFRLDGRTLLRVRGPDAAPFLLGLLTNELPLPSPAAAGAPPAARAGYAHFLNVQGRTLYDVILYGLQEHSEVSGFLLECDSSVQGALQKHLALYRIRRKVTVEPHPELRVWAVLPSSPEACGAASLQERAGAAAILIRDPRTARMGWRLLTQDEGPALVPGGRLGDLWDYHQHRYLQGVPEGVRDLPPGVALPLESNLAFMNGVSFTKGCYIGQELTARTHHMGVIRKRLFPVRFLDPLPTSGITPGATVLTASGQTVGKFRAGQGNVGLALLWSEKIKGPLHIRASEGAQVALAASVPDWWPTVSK
Chain of NDUFAF1 (human) (Q9Y375 25-327 limits assumed): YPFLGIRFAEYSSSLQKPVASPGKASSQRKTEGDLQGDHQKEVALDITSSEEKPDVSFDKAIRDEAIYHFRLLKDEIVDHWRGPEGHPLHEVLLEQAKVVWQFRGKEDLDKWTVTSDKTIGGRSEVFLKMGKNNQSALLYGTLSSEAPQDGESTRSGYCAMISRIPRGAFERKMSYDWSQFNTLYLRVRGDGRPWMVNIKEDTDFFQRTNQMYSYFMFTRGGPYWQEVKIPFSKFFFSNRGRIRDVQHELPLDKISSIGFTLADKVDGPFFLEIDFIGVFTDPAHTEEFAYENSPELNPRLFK
Chain of PITRM1 (human) (Q5JRX3 29-1037 limits assumed): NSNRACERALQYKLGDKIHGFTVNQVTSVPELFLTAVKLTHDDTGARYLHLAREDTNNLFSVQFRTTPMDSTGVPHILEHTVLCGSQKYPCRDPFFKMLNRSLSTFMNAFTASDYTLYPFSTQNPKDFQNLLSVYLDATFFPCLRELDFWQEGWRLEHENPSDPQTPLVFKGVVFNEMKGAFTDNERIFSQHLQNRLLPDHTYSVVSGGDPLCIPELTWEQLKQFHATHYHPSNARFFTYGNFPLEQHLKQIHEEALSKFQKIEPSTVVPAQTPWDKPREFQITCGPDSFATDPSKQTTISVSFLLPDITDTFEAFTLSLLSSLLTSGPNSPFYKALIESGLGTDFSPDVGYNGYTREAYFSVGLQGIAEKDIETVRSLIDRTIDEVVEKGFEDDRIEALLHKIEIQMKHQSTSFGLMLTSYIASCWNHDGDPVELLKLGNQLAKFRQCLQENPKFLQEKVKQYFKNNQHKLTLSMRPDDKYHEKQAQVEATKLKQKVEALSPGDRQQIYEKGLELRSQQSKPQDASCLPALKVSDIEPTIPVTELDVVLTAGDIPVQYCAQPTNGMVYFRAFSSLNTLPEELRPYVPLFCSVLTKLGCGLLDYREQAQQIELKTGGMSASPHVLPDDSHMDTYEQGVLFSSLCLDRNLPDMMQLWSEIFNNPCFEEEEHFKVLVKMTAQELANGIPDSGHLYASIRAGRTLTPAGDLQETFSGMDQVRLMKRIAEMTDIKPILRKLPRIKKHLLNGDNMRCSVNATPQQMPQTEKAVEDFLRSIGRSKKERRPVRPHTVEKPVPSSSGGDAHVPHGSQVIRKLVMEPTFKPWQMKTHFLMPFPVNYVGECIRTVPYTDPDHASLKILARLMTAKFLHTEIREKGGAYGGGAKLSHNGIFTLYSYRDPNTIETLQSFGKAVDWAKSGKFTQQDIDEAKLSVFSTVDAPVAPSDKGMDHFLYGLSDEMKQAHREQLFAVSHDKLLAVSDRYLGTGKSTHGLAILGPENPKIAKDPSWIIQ
Chain of MTHFD1L (human) (Q6UB35 32-978 limits assumed): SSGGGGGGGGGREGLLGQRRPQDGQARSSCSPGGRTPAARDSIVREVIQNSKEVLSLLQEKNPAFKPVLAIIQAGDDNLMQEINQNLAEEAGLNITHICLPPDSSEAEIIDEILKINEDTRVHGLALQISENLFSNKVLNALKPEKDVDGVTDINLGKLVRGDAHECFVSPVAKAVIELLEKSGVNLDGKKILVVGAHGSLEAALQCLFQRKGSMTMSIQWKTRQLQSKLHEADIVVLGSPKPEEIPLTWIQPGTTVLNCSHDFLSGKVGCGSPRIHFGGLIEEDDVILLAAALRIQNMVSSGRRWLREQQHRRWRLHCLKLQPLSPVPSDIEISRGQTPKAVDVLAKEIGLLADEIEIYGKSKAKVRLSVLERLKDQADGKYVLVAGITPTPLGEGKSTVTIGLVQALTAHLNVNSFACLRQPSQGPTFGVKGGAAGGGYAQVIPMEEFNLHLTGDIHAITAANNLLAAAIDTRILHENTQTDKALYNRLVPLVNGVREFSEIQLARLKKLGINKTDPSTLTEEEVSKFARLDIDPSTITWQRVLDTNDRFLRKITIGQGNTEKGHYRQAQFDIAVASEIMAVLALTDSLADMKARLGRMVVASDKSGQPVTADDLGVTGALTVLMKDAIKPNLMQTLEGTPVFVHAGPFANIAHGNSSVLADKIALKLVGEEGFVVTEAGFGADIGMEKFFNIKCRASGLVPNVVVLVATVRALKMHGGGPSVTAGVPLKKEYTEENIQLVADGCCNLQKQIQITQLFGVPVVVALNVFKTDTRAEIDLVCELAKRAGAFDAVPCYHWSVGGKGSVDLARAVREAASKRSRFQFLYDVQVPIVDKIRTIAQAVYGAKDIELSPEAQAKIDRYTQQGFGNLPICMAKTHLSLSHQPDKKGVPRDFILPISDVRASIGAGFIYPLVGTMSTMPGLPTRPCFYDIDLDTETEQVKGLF
Chain of NDUFS2 (human) (O75306 34-463 limits assumed): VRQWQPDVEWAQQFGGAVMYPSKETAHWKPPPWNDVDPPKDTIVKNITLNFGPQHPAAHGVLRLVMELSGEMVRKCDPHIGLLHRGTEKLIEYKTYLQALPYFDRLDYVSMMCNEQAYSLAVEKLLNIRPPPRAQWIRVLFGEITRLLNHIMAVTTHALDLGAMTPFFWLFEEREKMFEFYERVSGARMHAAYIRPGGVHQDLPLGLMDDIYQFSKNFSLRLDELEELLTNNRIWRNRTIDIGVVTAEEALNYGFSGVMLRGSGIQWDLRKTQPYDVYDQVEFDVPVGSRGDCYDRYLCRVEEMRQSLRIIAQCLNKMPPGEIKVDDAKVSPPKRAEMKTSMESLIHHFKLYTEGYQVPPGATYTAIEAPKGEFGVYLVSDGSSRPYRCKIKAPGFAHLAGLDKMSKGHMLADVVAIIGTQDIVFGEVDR
Chain of COX5A (human) (P20674 42-150 limits assumed): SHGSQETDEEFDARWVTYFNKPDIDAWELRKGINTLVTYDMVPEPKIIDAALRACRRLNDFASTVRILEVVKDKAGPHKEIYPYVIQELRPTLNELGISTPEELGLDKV
Chain of NDUFA12 (human) (Q9UI09 whole entry): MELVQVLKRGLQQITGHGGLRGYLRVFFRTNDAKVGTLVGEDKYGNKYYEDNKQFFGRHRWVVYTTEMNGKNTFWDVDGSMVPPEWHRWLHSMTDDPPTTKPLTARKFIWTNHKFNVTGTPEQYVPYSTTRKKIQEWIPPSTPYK

Log2 Fold change (vs control) [1]: -0.38 log2
Log2 Fold change (vs control) [2]: -0.08 log2
Log2 Fold change (vs control) [3]: 1.05 log2
Log2 Fold change (vs control) [4]: 1.65 log2
Log2 Fold change (vs control) [5]: -0.42 log2
Log2 Fold change (vs control) [6]: 0.14 log2
Log2 Fold change (vs control) [7]: -0.28 log2
Log2 Fold change (vs control) [8]: -3.58 log2
Log2 Fold change (vs control) [9]: -0.05 log2
Log2 Fold change (vs control) [10]: -0.01 log2
Log2 Fold change (vs control) [11]: 0.03 log2
Log2 Fold change (vs control) [12]: -0.6 log2
Log2 Fold change (vs control) [13]: -0.51 log2
Log2 Fold change (vs control) [14]: 0.03 log2
Log2 Fold change (vs control) [15]: 0.05 log2
Log2 Fold change (vs control) [16]: 0.79 log2
Log2 Fold change (vs control) [17]: 1.68 log2
Log2 Fold change (vs control) [18]: 1.06 log2
Log2 Fold change (vs control) [19]: -4.32 log2
Log2 Fold change (vs control) [20]: 1.13 log2
Log2 Fold change (vs control) [21]: -0.81 log2
Log2 Fold change (vs control) [22]: 0.29 log2
Log2 Fold change (vs control) [23]: 0.45 log2
Log2 Fold change (vs control) [24]: 0.56 log2
Log2 Fold change (vs control) [25]: 0.8 log2
Log2 Fold change (vs control) [26]: -1.02 log2
Log2 Fold change (vs control) [27]: 0.4 log2
Log2 Fold change (vs control) [28]: -0.15 log2
Log2 Fold change (vs control) [29]: -0.25 log2
Log2 Fold change (vs control) [30]: 0.44 log2
Log2 Fold change (vs control) [31]: 0.25 log2
Log2 Fold change (vs control) [32]: 0.78 log2
Log2 Fold change (vs control) [33]: 0.14 log2
Log2 Fold change (vs control) [34]: -2.32 log2
Log2 Fold change (vs control) [35]: -1.46 log2
Log2 Fold change (vs control) [36]: 0.25 log2
Log2 Fold change (vs control) [37]: -0.03 log2
Log2 Fold change (vs control) [38]: -2.58 log2
Log2 Fold change (vs control) [39]: -2.38 log2
Log2 Fold change (vs control) [40]: -0.91 log2
Log2 Fold change (vs control) [41]: -0.16 log2
Log2 Fold change (vs control) [42]: 0.1 log2
Log2 Fold change (vs control) [43]: -1.04 log2
Log2 Fold change (vs control) [44]: 0.3 log2
Substance: FlagBirA-ClpP (Y118A) (from UniProt P06709 1-321; Q16740 57-277) (enzyme)

Log2 Fold change (vs control) [45]: -5.29 log2
Log2 Fold change (vs control) [46]: -3 log2
Log2 Fold change (vs control) [47]: -4.82 log2
Log2 Fold change (vs control) [48]: -4.31 log2
Log2 Fold change (vs control) [49]: -2.38 log2
Log2 Fold change (vs control) [50]: -2.58 log2
Log2 Fold change (vs control) [51]: -4.25 log2
Log2 Fold change (vs control) [52]: -5.32 log2
Log2 Fold change (vs control) [53]: -0.69 log2
Log2 Fold change (vs control) [54]: -1.3 log2
Log2 Fold change (vs control) [55]: -2.44 log2
Log2 Fold change (vs control) [56]: -2.16 log2
Substance: FlagBirA-ClpP (WT) (from UniProt P06709 1-321; Q16740 57-277) (enzyme)

— patent US20220143024A1, “METHODS OF USING IMIPRIDONES” (Board of Regents, The University of Texas System, priority 2019, published 2022)
